Test results as given in article PMC8844116.

B1: Flag-RAGE wild type (LV-Flag-RAGE-wt, wild-type ctRAGE) [mouse] / mitogen-activated protein kinase kinase 3 (MKK3), endogenous in mouse hippocampus and HT22 cells [mouse (endogenous in hippocampus and in HT22)] (parent)
chain 1: GQNITARIGEPLVLSCKGAPKKPPQQLEWKLNTGRTEAWKVLSPQGGPWDSVARILPNGSLLLPATGIVDEGTFRCRATNRRGKEVKSNYRVRVYQIPGKPEIVDPASELTASVPNKVGTCVSEGSYPAGTLSWHLDGKLLIPDGKETLVKEETRRHPETGLFTLRSELTVIPTQGGTHPTFSCSFSLGLPRRRPLNTAPIQLRVREPGPPEGIQLLVEPEGGIVAPGGTVTLTCAISAQPPPQVHWIKDGAPLPLAPSPVLLLPEVGHEDEGTYSCVATHPSHGPQESPPVSIRVTETGDEGPAEGSVGESGLGTLALALGILGGLGVVALLVGAILWRKRQPRREERKAPESQEDEEERAELNQSEEAEMPENGAGGP
chain 2: MESPAASPPASLPQTKGKSKRKKDLRISCVSKPPVSNPTPPRNLDSRTFITIGDRNFEVEADDLVTISELGRGAYGVVEKVRHAQSGTIMAVKRIRATVNTQEQKRLLMDLDINMRTVDCFYTVTFYGALFREGDVWICMELMDTSLDKFYRKVLEKNMKIPEDILGEIAVSIVRALEHLHSKLSVIHRDVKPSNVLINKEGHVKMCDFGISGYLVDSVAKTMDAGCKPYMAPERINPELNQKGYNVKSDVWSLGITMIEMAILRFPYESWGTPFQQLKQVVEEPSPQLPADQFSPEFVDFTSQCLRKNPAERMSYLELMEHPFFTLHKTKKTDIAAFVKEILGEDS

Variants of: B1
Assay: co-immunoprecipitation (IP: Flag-RAGE, IB: MKK3), optical density of blot
Conditions: with mitogen-activated protein kinase kinase 3 (MKK3), HT22 cells with RAGE-shRNA knockdown, high glucose, n = 3, parent: 6, read off a plot

response (fold change to HG + RAGE-shRNA group)	Variant
1.6	chain 1 GQNITARIGEPLVLSCKGAPKKPPQQLEWKLNTGRTEAWKVLSPQGGPWDSVARILPNGSLLLPATGIVDEGTFRCRATNRRGKEVKSNYRVRVYQIPGKPEIVDPASELTASVPNKVGTCVSEGSYPAGTLSWHLDGKLLIPDGKETLVKEETRRHPETGLFTLRSELTVIPTQGGTHPTFSCSFSLGLPRRRPLNTAPIQLRVREPGPPEGIQLLVEPEGGIVAPGGTVTLTCAISAQPPPQVHWIKDGAPLPLAPSPVLLLPEVGHEDEGTYSCVATHPSHGPQESPPVSIRVTETGDEGPAEGSVGESGLGTLALALGILGGLGVVALLVGAILWAAAAPRREERKAPESQEDEEERAELNQSEEAEMPENGAGGP [chain 1 R340A K341A R342A Q343A]

Same assay, conditions: with mitogen-activated protein kinase kinase 3 (MKK3), hippocampus of db/db mice with LV-RAGE-shRNA, n = 3, parent: 3, read off a plot

response (fold change to db/db + RAGE-shRNA group)	Variant
1.4	chain 1 GQNITARIGEPLVLSCKGAPKKPPQQLEWKLNTGRTEAWKVLSPQGGPWDSVARILPNGSLLLPATGIVDEGTFRCRATNRRGKEVKSNYRVRVYQIPGKPEIVDPASELTASVPNKVGTCVSEGSYPAGTLSWHLDGKLLIPDGKETLVKEETRRHPETGLFTLRSELTVIPTQGGTHPTFSCSFSLGLPRRRPLNTAPIQLRVREPGPPEGIQLLVEPEGGIVAPGGTVTLTCAISAQPPPQVHWIKDGAPLPLAPSPVLLLPEVGHEDEGTYSCVATHPSHGPQESPPVSIRVTETGDEGPAEGSVGESGLGTLALALGILGGLGVVALLVGAILWAAAAPRREERKAPESQEDEEERAELNQSEEAEMPENGAGGP [chain 1 R340A K341A R342A Q343A]

Variants of: B1
Assay: co-immunoprecipitation (IP: MKK3, IB: Flag-RAGE), optical density of blot
Conditions: with mitogen-activated protein kinase kinase 3 (MKK3), HT22 cells with RAGE-shRNA knockdown, high glucose, n = 3, parent: 6.8, read off a plot

response (fold change to HG + RAGE-shRNA group)	Variant
1.8	chain 1 GQNITARIGEPLVLSCKGAPKKPPQQLEWKLNTGRTEAWKVLSPQGGPWDSVARILPNGSLLLPATGIVDEGTFRCRATNRRGKEVKSNYRVRVYQIPGKPEIVDPASELTASVPNKVGTCVSEGSYPAGTLSWHLDGKLLIPDGKETLVKEETRRHPETGLFTLRSELTVIPTQGGTHPTFSCSFSLGLPRRRPLNTAPIQLRVREPGPPEGIQLLVEPEGGIVAPGGTVTLTCAISAQPPPQVHWIKDGAPLPLAPSPVLLLPEVGHEDEGTYSCVATHPSHGPQESPPVSIRVTETGDEGPAEGSVGESGLGTLALALGILGGLGVVALLVGAILWAAAAPRREERKAPESQEDEEERAELNQSEEAEMPENGAGGP [chain 1 R340A K341A R342A Q343A]

Same assay, conditions: with mitogen-activated protein kinase kinase 3 (MKK3), hippocampus of db/db mice with LV-RAGE-shRNA, n = 3, parent: 3.4, read off a plot

response (fold change to db/db + RAGE-shRNA group)	Variant
1.9	chain 1 GQNITARIGEPLVLSCKGAPKKPPQQLEWKLNTGRTEAWKVLSPQGGPWDSVARILPNGSLLLPATGIVDEGTFRCRATNRRGKEVKSNYRVRVYQIPGKPEIVDPASELTASVPNKVGTCVSEGSYPAGTLSWHLDGKLLIPDGKETLVKEETRRHPETGLFTLRSELTVIPTQGGTHPTFSCSFSLGLPRRRPLNTAPIQLRVREPGPPEGIQLLVEPEGGIVAPGGTVTLTCAISAQPPPQVHWIKDGAPLPLAPSPVLLLPEVGHEDEGTYSCVATHPSHGPQESPPVSIRVTETGDEGPAEGSVGESGLGTLALALGILGGLGVVALLVGAILWAAAAPRREERKAPESQEDEEERAELNQSEEAEMPENGAGGP [chain 1 R340A K341A R342A Q343A]
